Experimental data reported in patent EP4588489A1, “LINKER FOR ANTIBODY-DRUG CONJUGATE AND USE THEREOF” (priority 2022, dated 2024).
Read-outs that look alike come from different tables or passages of the source.

T1: TROP2 (UniProt P09758 27-323, limits assumed)
T1 sequence (looked up): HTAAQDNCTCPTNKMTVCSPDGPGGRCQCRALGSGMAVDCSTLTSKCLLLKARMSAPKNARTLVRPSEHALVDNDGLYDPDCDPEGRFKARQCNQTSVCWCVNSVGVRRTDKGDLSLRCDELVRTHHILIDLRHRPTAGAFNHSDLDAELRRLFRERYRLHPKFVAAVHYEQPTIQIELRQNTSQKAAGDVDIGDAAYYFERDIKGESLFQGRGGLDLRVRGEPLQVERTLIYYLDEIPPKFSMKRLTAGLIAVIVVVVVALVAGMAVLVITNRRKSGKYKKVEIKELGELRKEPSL

B1: hRS7-CPD3-NC-D4 (antibody, human IgG1, kappa, V domains shown)
VH: QVQLQQSGSELKKPGASVKVSCKASGYTFTNYGMNWVKQAPGQGLKWMGWINTYTGEPTYTDDFKGRFAFSLDTSVSTAYLQISSLKADDTAVYFCARGGFGSSYWYFDVWGQGSLVTVSS
VL: DIQLTQSPSSLSASVGDRVSITCKASQDVSIAVAWYQQKPGKAPKLLIYSASYRYTGVPDRFSGSGSGTDFTLTISSLQPEDFAVYYCQQHYITPLTFGAGTKVEIKR
modifications: linker-drug CPD3 on cysteines of reduced interchain disulfides; label D4
B2: hRS7-CPD4-NC-D4 (antibody, human IgG1, kappa, V domains shown)
VH: QVQLQQSGSELKKPGASVKVSCKASGYTFTNYGMNWVKQAPGQGLKWMGWINTYTGEPTYTDDFKGRFAFSLDTSVSTAYLQISSLKADDTAVYFCARGGFGSSYWYFDVWGQGSLVTVSS
VL: DIQLTQSPSSLSASVGDRVSITCKASQDVSIAVAWYQQKPGKAPKLLIYSASYRYTGVPDRFSGSGSGTDFTLTISSLQPEDFAVYYCQQHYITPLTFGAGTKVEIKR
modifications: linker-drug CPD4 on cysteines of reduced interchain disulfides; label D4
B3: hRS7-CPD5-NC-D4 (antibody, human IgG1, kappa, V domains shown)
VH: QVQLQQSGSELKKPGASVKVSCKASGYTFTNYGMNWVKQAPGQGLKWMGWINTYTGEPTYTDDFKGRFAFSLDTSVSTAYLQISSLKADDTAVYFCARGGFGSSYWYFDVWGQGSLVTVSS
VL: DIQLTQSPSSLSASVGDRVSITCKASQDVSIAVAWYQQKPGKAPKLLIYSASYRYTGVPDRFSGSGSGTDFTLTISSLQPEDFAVYYCQQHYITPLTFGAGTKVEIKR
modifications: linker-drug CPD5 on cysteines of reduced interchain disulfides; label D4
B4: hRS7-CPD6-NC-D4 (antibody, human IgG1, kappa, V domains shown)
VH: QVQLQQSGSELKKPGASVKVSCKASGYTFTNYGMNWVKQAPGQGLKWMGWINTYTGEPTYTDDFKGRFAFSLDTSVSTAYLQISSLKADDTAVYFCARGGFGSSYWYFDVWGQGSLVTVSS
VL: DIQLTQSPSSLSASVGDRVSITCKASQDVSIAVAWYQQKPGKAPKLLIYSASYRYTGVPDRFSGSGSGTDFTLTISSLQPEDFAVYYCQQHYITPLTFGAGTKVEIKR
modifications: linker-drug CPD6 on cysteines of reduced interchain disulfides; label D4
B5: DXD (deruxtecan)-conjugated sacituzumab (hRS7-DXD) (antibody, human IgG1, kappa, V domains shown)
VH: QVQLQQSGSELKKPGASVKVSCKASGYTFTNYGMNWVKQAPGQGLKWMGWINTYTGEPTYTDDFKGRFAFSLDTSVSTAYLQISSLKADDTAVYFCARGGFGSSYWYFDVWGQGSLVTVSS
VL: DIQLTQSPSSLSASVGDRVSITCKASQDVSIAVAWYQQKPGKAPKLLIYSASYRYTGVPDRFSGSGSGTDFTLTISSLQPEDFAVYYCQQHYITPLTFGAGTKVEIKR
modifications: deruxtecan (DXD) on cysteines of reduced interchain disulfides; label D4
B6: hRS7-CPT004-D4 (antibody, human IgG1, kappa, V domains shown)
VH: QVQLQQSGSELKKPGASVKVSCKASGYTFTNYGMNWVKQAPGQGLKWMGWINTYTGEPTYTDDFKGRFAFSLDTSVSTAYLQISSLKADDTAVYFCARGGFGSSYWYFDVWGQGSLVTVSS
VL: DIQLTQSPSSLSASVGDRVSITCKASQDVSIAVAWYQQKPGKAPKLLIYSASYRYTGVPDRFSGSGSGTDFTLTISSLQPEDFAVYYCQQHYITPLTFGAGTKVEIKR
modifications: linker-drug CPT004 on cysteines of reduced interchain disulfides; label D4
B7: hRS7-CPT005-D4 (antibody, human IgG1, kappa, V domains shown)
VH: QVQLQQSGSELKKPGASVKVSCKASGYTFTNYGMNWVKQAPGQGLKWMGWINTYTGEPTYTDDFKGRFAFSLDTSVSTAYLQISSLKADDTAVYFCARGGFGSSYWYFDVWGQGSLVTVSS
VL: DIQLTQSPSSLSASVGDRVSITCKASQDVSIAVAWYQQKPGKAPKLLIYSASYRYTGVPDRFSGSGSGTDFTLTISSLQPEDFAVYYCQQHYITPLTFGAGTKVEIKR
modifications: linker-drug CPT005 on cysteines of reduced interchain disulfides; label D4
B8: hRS7-CPT006-D4 (antibody, human IgG1, kappa, V domains shown)
VH: QVQLQQSGSELKKPGASVKVSCKASGYTFTNYGMNWVKQAPGQGLKWMGWINTYTGEPTYTDDFKGRFAFSLDTSVSTAYLQISSLKADDTAVYFCARGGFGSSYWYFDVWGQGSLVTVSS
VL: DIQLTQSPSSLSASVGDRVSITCKASQDVSIAVAWYQQKPGKAPKLLIYSASYRYTGVPDRFSGSGSGTDFTLTISSLQPEDFAVYYCQQHYITPLTFGAGTKVEIKR
modifications: linker-drug CPT006 on cysteines of reduced interchain disulfides; label D4
B9: hRS7-CPT009-D4 (antibody, human IgG1, kappa, V domains shown)
VH: QVQLQQSGSELKKPGASVKVSCKASGYTFTNYGMNWVKQAPGQGLKWMGWINTYTGEPTYTDDFKGRFAFSLDTSVSTAYLQISSLKADDTAVYFCARGGFGSSYWYFDVWGQGSLVTVSS
VL: DIQLTQSPSSLSASVGDRVSITCKASQDVSIAVAWYQQKPGKAPKLLIYSASYRYTGVPDRFSGSGSGTDFTLTISSLQPEDFAVYYCQQHYITPLTFGAGTKVEIKR
modifications: linker-drug CPT009 on cysteines of reduced interchain disulfides; label D4
B10: hRS7-SN38-D8 (antibody, human IgG1, kappa, V domains shown)
VH: QVQLQQSGSELKKPGASVKVSCKASGYTFTNYGMNWVKQAPGQGLKWMGWINTYTGEPTYTDDFKGRFAFSLDTSVSTAYLQISSLKADDTAVYFCARGGFGSSYWYFDVWGQGSLVTVSS
VL: DIQLTQSPSSLSASVGDRVSITCKASQDVSIAVAWYQQKPGKAPKLLIYSASYRYTGVPDRFSGSGSGTDFTLTISSLQPEDFAVYYCQQHYITPLTFGAGTKVEIKR
modifications: comp.5-linked SN38 on cysteines of reduced interchain disulfides; label D8
B11: hRS7-CL2A-SN38-D8 (antibody, human IgG1, kappa, V domains shown)
VH: QVQLQQSGSELKKPGASVKVSCKASGYTFTNYGMNWVKQAPGQGLKWMGWINTYTGEPTYTDDFKGRFAFSLDTSVSTAYLQISSLKADDTAVYFCARGGFGSSYWYFDVWGQGSLVTVSS
VL: DIQLTQSPSSLSASVGDRVSITCKASQDVSIAVAWYQQKPGKAPKLLIYSASYRYTGVPDRFSGSGSGTDFTLTISSLQPEDFAVYYCQQHYITPLTFGAGTKVEIKR
modifications: CL2A-SN38 on cysteines of reduced interchain disulfides; label D8
B12: hRS7-C6-D4 (antibody, human IgG1, kappa, V domains shown)
VH: QVQLQQSGSELKKPGASVKVSCKASGYTFTNYGMNWVKQAPGQGLKWMGWINTYTGEPTYTDDFKGRFAFSLDTSVSTAYLQISSLKADDTAVYFCARGGFGSSYWYFDVWGQGSLVTVSS
VL: DIQLTQSPSSLSASVGDRVSITCKASQDVSIAVAWYQQKPGKAPKLLIYSASYRYTGVPDRFSGSGSGTDFTLTISSLQPEDFAVYYCQQHYITPLTFGAGTKVEIKR
modifications: linker-drug comp6 on cysteines of reduced interchain disulfides; DAR 3.49
B13: hRS7-C7-D4 (antibody, human IgG1, kappa, V domains shown)
VH: QVQLQQSGSELKKPGASVKVSCKASGYTFTNYGMNWVKQAPGQGLKWMGWINTYTGEPTYTDDFKGRFAFSLDTSVSTAYLQISSLKADDTAVYFCARGGFGSSYWYFDVWGQGSLVTVSS
VL: DIQLTQSPSSLSASVGDRVSITCKASQDVSIAVAWYQQKPGKAPKLLIYSASYRYTGVPDRFSGSGSGTDFTLTISSLQPEDFAVYYCQQHYITPLTFGAGTKVEIKR
modifications: linker-drug comp7 on cysteines of reduced interchain disulfides; DAR 3.56
B14: hRS7-C8-D4 (antibody, human IgG1, kappa, V domains shown)
VH: QVQLQQSGSELKKPGASVKVSCKASGYTFTNYGMNWVKQAPGQGLKWMGWINTYTGEPTYTDDFKGRFAFSLDTSVSTAYLQISSLKADDTAVYFCARGGFGSSYWYFDVWGQGSLVTVSS
VL: DIQLTQSPSSLSASVGDRVSITCKASQDVSIAVAWYQQKPGKAPKLLIYSASYRYTGVPDRFSGSGSGTDFTLTISSLQPEDFAVYYCQQHYITPLTFGAGTKVEIKR
modifications: linker-drug comp8 on cysteines of reduced interchain disulfides; DAR 3.52
B15: hRS7-C9-D4 (antibody, human IgG1, kappa, V domains shown)
VH: QVQLQQSGSELKKPGASVKVSCKASGYTFTNYGMNWVKQAPGQGLKWMGWINTYTGEPTYTDDFKGRFAFSLDTSVSTAYLQISSLKADDTAVYFCARGGFGSSYWYFDVWGQGSLVTVSS
VL: DIQLTQSPSSLSASVGDRVSITCKASQDVSIAVAWYQQKPGKAPKLLIYSASYRYTGVPDRFSGSGSGTDFTLTISSLQPEDFAVYYCQQHYITPLTFGAGTKVEIKR
modifications: linker-drug comp9 on cysteines of reduced interchain disulfides; DAR 3.54
B16: hRS7-CPD1-NC-D4 (antibody, human IgG1, kappa, V domains shown)
VH: QVQLQQSGSELKKPGASVKVSCKASGYTFTNYGMNWVKQAPGQGLKWMGWINTYTGEPTYTDDFKGRFAFSLDTSVSTAYLQISSLKADDTAVYFCARGGFGSSYWYFDVWGQGSLVTVSS
VL: DIQLTQSPSSLSASVGDRVSITCKASQDVSIAVAWYQQKPGKAPKLLIYSASYRYTGVPDRFSGSGSGTDFTLTISSLQPEDFAVYYCQQHYITPLTFGAGTKVEIKR
modifications: linker-drug CPD1 on cysteines of reduced interchain disulfides; label D4
B17: hRS7-CPD2-NC-D4 (antibody, human IgG1, kappa, V domains shown)
VH: QVQLQQSGSELKKPGASVKVSCKASGYTFTNYGMNWVKQAPGQGLKWMGWINTYTGEPTYTDDFKGRFAFSLDTSVSTAYLQISSLKADDTAVYFCARGGFGSSYWYFDVWGQGSLVTVSS
VL: DIQLTQSPSSLSASVGDRVSITCKASQDVSIAVAWYQQKPGKAPKLLIYSASYRYTGVPDRFSGSGSGTDFTLTISSLQPEDFAVYYCQQHYITPLTFGAGTKVEIKR
modifications: linker-drug CPD2 on cysteines of reduced interchain disulfides; label D4

Assays:
Assay in all cases: cell-based or functional assay
TROP2 [1] = molecular target: T1, TROP2
TROP2 [2] = molecular target: T1, TROP2; remark: listed apart in the source
TROP2 [3] = molecular target: T1, TROP2; remark: listed apart in the source

Binder | EC50(nM), inhibition of BxPC-3 cell proliferation (TROP2 [1]) [nM] | Relative activity (%), inhibition of BxPC-3 cell proliferation (TROP2 [1]) [%] | EC50(nM), inhibition of BxPC-3 cell proliferation (TROP2 [2]) [nM] | Relative activity (%), inhibition of BxPC-3 cell proliferation (TROP2 [2]) [%] | Relative activity (%), inhibition of BxPC-3 cell proliferation (TROP2 [3]) [%] | EC50(nM), inhibition of BxPC-3 cell proliferation (TROP2 [3]) [nM]
B1 | 0.309 | 156 |  |  |  | 
B2 | 0.424 | 89.6 |  |  |  | 
B3 | 0.478 | 79.6 |  |  |  | 
B4 | 0.341 | 111 |  |  |  | 
B5 | 0.38 | 100 | 0.156 | 100 | 100 | 
B6 |  |  | 0.144 | 109 |  | 
B7 |  |  | 0.101 | 155 |  | 
B8 |  |  | 0.259 | 60.4 |  | 
B9 |  |  | 0.353 | 50.7 |  | 
B10 |  |  | 6.46 |  |  | 
B11 |  |  | 0.259 | 100 |  | 
B12 |  |  |  |  | 80 | 0.393
B13 |  |  |  |  | 103 | 0.305
B14 |  |  |  |  | 97 | 0.323
B15 |  |  |  |  | 108 | 0.377
B16 | 0.468 | 103 |  |  |  | 
B17 | 0.327 | 147 |  |  |  | 
